Measured values taken from US20230235012A1 (ALPINE IMMUNE SCIENCES, published 2023).

T1: human ICOS, full-length, expressed on transfected Expi293 cells (human, UniProt Q9Y6W8 21-199)
T1 construct: whole, on cells
T1 sequence (looked up): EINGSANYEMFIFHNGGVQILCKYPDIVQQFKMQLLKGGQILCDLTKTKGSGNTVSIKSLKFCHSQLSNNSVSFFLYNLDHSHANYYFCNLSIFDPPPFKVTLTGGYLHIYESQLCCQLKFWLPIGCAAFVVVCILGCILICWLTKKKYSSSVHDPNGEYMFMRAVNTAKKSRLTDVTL


Legend:
[1] = biological target: T2, human CD28, full-length, expressed on transfected Expi293 cells (human, UniProt P10747 19-220); assay: flow cytometry, 100 nM, Expi293 cells with human CD28
T2 construct: whole, on cells

[2] = biological target: T1, human ICOS, full-length, expressed on …; assay: flow cytometry, 100 nM, Expi293 cells with human ICOS
[3] = biological target: T3, human CTLA-4, full-length, expressed on transfected Expi293 cells (human, UniProt P16410 36-223); assay: flow cytometry, 100 nM, Expi293 cells with human CTLA-4
T3 construct: whole, on cells
T3 sequence (P16410 36-223): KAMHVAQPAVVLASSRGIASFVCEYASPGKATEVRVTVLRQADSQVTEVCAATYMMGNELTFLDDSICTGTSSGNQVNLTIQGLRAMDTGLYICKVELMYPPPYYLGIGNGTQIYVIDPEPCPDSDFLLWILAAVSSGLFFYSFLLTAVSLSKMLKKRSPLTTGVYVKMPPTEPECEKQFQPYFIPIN

| Binder | MFI [1] [MFI] | MFI ratio to WT (ΔWT) [1] [fold] | MFI [2] [MFI] | MFI ratio to WT (ΔWT) [2] [fold] | MFI [3] [MFI] | MFI ratio to WT (ΔWT) [3] [fold] |
| --- | --- | --- | --- | --- | --- | --- |
| variant ICOSL IgV-Fc fusion N52K/N57Y/Q100R (Fc fusion) DTQEKEVRAMVGSDVELSCACPEGSRFDLNDVYVYWQTSESKTVVTYHIPQKSSLEYVDSRYRNRALMSPAGMLRGDFSLRLFNVTPQDEQKFHCLVLSRSLGFQEVLSVEVTLHVAANFSVGSGGGGSEPKSSDKTHTCPPCPAPEAEGAPSVFLFPPKPKDTLMISRTPEVTCVVVDVSHEDPEVKFNWYVDGVEVHNAKTKPREEQYNSTYRVVSVLTVLHQDWLNGKEYKCKVSNKALPAPIEKTISKAKGQPREPQVYTLPPSREEMTKNQVSLTCLVKGFYPSDIAVEWESNGQPENNYKTTPPVLDSDGSFFLYSKLTVDKSRWQQGNVFSCSVMHEALHNHYTQKSLSLSPG | 141000 | 6.3 | 199000 | 0.94 | 233000 | 0.71 |
| variant ICOSL IgV-Fc fusion N52M/N57W/Q100P (Fc fusion) DTQEKEVRAMVGSDVELSCACPEGSRFDLNDVYVYWQTSESKTVVTYHIPQMSSLEWVDSRYRNRALMSPAGMLRGDFSLRLFNVTPQDEQKFHCLVLSPSLGFQEVLSVEVTLHVAANFSVGSGGGGSEPKSSDKTHTCPPCPAPEAEGAPSVFLFPPKPKDTLMISRTPEVTCVVVDVSHEDPEVKFNWYVDGVEVHNAKTKPREEQYNSTYRVVSVLTVLHQDWLNGKEYKCKVSNKALPAPIEKTISKAKGQPREPQVYTLPPSREEMTKNQVSLTCLVKGFYPSDIAVEWESNGQPENNYKTTPPVLDSDGSFFLYSKLTVDKSRWQQGNVFSCSVMHEALHNHYTQKSLSLSPG | 168000 | 7.5 | 322000 | 1.52 | 343000 | 1.04 |
| variant ICOSL IgV-Fc fusion N52L/N57H/Q100R (Fc fusion) DTQEKEVRAMVGSDVELSCACPEGSRFDLNDVYVYWQTSESKTVVTYHIPQLSSLEHVDSRYRNRALMSPAGMLRGDFSLRLFNVTPQDEQKFHCLVLSRSLGFQEVLSVEVTLHVAANFSVGSGGGGSEPKSSDKTHTCPPCPAPEAEGAPSVFLFPPKPKDTLMISRTPEVTCVVVDVSHEDPEVKFNWYVDGVEVHNAKTKPREEQYNSTYRVVSVLTVLHQDWLNGKEYKCKVSNKALPAPIEKTISKAKGQPREPQVYTLPPSREEMTKNQVSLTCLVKGFYPSDIAVEWESNGQPENNYKTTPPVLDSDGSFFLYSKLTVDKSRWQQGNVFSCSVMHEALHNHYTQKSLSLSPG | 141000 | 6.3 | 250000 | 1.18 | 353000 | 1.07 |
| variant ICOSL IgV-Fc fusion N52M/N57H/Q100S (Fc fusion) DTQEKEVRAMVGSDVELSCACPEGSRFDLNDVYVYWQTSESKTVVTYHIPQMSSLEHVDSRYRNRALMSPAGMLRGDFSLRLFNVTPQDEQKFHCLVLSSSLGFQEVLSVEVTLHVAANFSVGSGGGGSEPKSSDKTHTCPPCPAPEAEGAPSVFLFPPKPKDTLMISRTPEVTCVVVDVSHEDPEVKFNWYVDGVEVHNAKTKPREEQYNSTYRVVSVLTVLHQDWLNGKEYKCKVSNKALPAPIEKTISKAKGQPREPQVYTLPPSREEMTKNQVSLTCLVKGFYPSDIAVEWESNGQPENNYKTTPPVLDSDGSFFLYSKLTVDKSRWQQGNVFSCSVMHEALHNHYTQKSLSLSPG | 115000 | 5.1 | 266000 | 1.25 | 463000 | 1.4 |
| variant ICOSL IgV-Fc fusion N52P/N57S/Q100G (Fc fusion) DTQEKEVRAMVGSDVELSCACPEGSRFDLNDVYVYWQTSESKTVVTYHIPQPSSLESVDSRYRNRALMSPAGMLRGDFSLRLFNVTPQDEQKFHCLVLSGSLGFQEVLSVEVTLHVAANFSVGSGGGGSEPKSSDKTHTCPPCPAPEAEGAPSVFLFPPKPKDTLMISRTPEVTCVVVDVSHEDPEVKFNWYVDGVEVHNAKTKPREEQYNSTYRVVSVLTVLHQDWLNGKEYKCKVSNKALPAPIEKTISKAKGQPREPQVYTLPPSREEMTKNQVSLTCLVKGFYPSDIAVEWESNGQPENNYKTTPPVLDSDGSFFLYSKLTVDKSRWQQGNVFSCSVMHEALHNHYTQKSLSLSPG | 6800 | 0.3 | 143000 | 0.68 | 5050 | 0.02 |
| variant ICOSL IgV-Fc fusion N52L/N57V (Fc fusion) DTQEKEVRAMVGSDVELSCACPEGSRFDLNDVYVYWQTSESKTVVTYHIPQLSSLEVVDSRYRNRALMSPAGMLRGDFSLRLFNVTPQDEQKFHCLVLSQSLGFQEVLSVEVTLHVAANFSVGSGGGGSEPKSSDKTHTCPPCPAPEAEGAPSVFLFPPKPKDTLMISRTPEVTCVVVDVSHEDPEVKFNWYVDGVEVHNAKTKPREEQYNSTYRVVSVLTVLHQDWLNGKEYKCKVSNKALPAPIEKTISKAKGQPREPQVYTLPPSREEMTKNQVSLTCLVKGFYPSDIAVEWESNGQPENNYKTTPPVLDSDGSFFLYSKLTVDKSRWQQGNVFSCSVMHEALHNHYTQKSLSLSPG | 54800 | 2.5 | 257000 | 1.21 | 151000 | 0.46 |

The next lines start with the values.

| MFI [1] [MFI] | MFI ratio to WT (ΔWT) [1] [fold] | MFI [2] [MFI] | MFI ratio to WT (ΔWT) [2] [fold] | MFI [3] [MFI] | MFI ratio to WT (ΔWT) [3] [fold] | Binder |
| --- | --- | --- | --- | --- | --- | --- |
| 131000 | 5.9 | 192000 | 0.91 | 367000 | 1.11 | variant ICOSL IgV-Fc fusion N52Q/N57F (Fc fusion) DTQEKEVRAMVGSDVELSCACPEGSRFDLNDVYVYWQTSESKTVVTYHIPQQSSLEFVDSRYRNRALMSPAGMLRGDFSLRLFNVTPQDEQKFHCLVLSQSLGFQEVLSVEVTLHVAANFSVGSGGGGSEPKSSDKTHTCPPCPAPEAEGAPSVFLFPPKPKDTLMISRTPEVTCVVVDVSHEDPEVKFNWYVDGVEVHNAKTKPREEQYNSTYRVVSVLTVLHQDWLNGKEYKCKVSNKALPAPIEKTISKAKGQPREPQVYTLPPSREEMTKNQVSLTCLVKGFYPSDIAVEWESNGQPENNYKTTPPVLDSDGSFFLYSKLTVDKSRWQQGNVFSCSVMHEALHNHYTQKSLSLSPG |
| 91300 | 4.1 | 263000 | 1.24 | 315000 | 0.95 | variant ICOSL IgV-Fc fusion N52Q/N57S/Q100A (Fc fusion) DTQEKEVRAMVGSDVELSCACPEGSRFDLNDVYVYWQTSESKTVVTYHIPQQSSLESVDSRYRNRALMSPAGMLRGDFSLRLFNVTPQDEQKFHCLVLSASLGFQEVLSVEVTLHVAANFSVGSGGGGSEPKSSDKTHTCPPCPAPEAEGAPSVFLFPPKPKDTLMISRTPEVTCVVVDVSHEDPEVKFNWYVDGVEVHNAKTKPREEQYNSTYRVVSVLTVLHQDWLNGKEYKCKVSNKALPAPIEKTISKAKGQPREPQVYTLPPSREEMTKNQVSLTCLVKGFYPSDIAVEWESNGQPENNYKTTPPVLDSDGSFFLYSKLTVDKSRWQQGNVFSCSVMHEALHNHYTQKSLSLSPG |
| 127000 | 5.7 | 270000 | 1.27 | 358000 | 1.08 | variant ICOSL IgV-Fc fusion N52R/N57F/Q100T (Fc fusion) DTQEKEVRAMVGSDVELSCACPEGSRFDLNDVYVYWQTSESKTVVTYHIPQRSSLEFVDSRYRNRALMSPAGMLRGDFSLRLFNVTPQDEQKFHCLVLSTSLGFQEVLSVEVTLHVAANFSVGSGGGGSEPKSSDKTHTCPPCPAPEAEGAPSVFLFPPKPKDTLMISRTPEVTCVVVDVSHEDPEVKFNWYVDGVEVHNAKTKPREEQYNSTYRVVSVLTVLHQDWLNGKEYKCKVSNKALPAPIEKTISKAKGQPREPQVYTLPPSREEMTKNQVSLTCLVKGFYPSDIAVEWESNGQPENNYKTTPPVLDSDGSFFLYSKLTVDKSRWQQGNVFSCSVMHEALHNHYTQKSLSLSPG |
